Source: paper doi:10.1101/2025.06.13.659517, “Analysis of apo and citraconate-bound hACOD1 (hIRG1) by X-ray crystallography and NMR spectroscopy: Structural insights for developing chemotherapeutic agents” (bioRxiv, 2025)

How the values were obtained:
purified protein = substrate: O=C(O)/C=C(/CC(=O)O)C(=O)O; assay: purified protein; format: biochemical, Homo sapiens; settings: active site
[1] = target: the molecule itself; assay: crystal structure; crystals of apo and citraconate-bound hACOD1 (4-461) grown in conditions containing calcium acetate; solved by molecular replacement with PDB 6R6U; two protomers (chains A and B) form the dimer

B1: Human aconitate decarboxylase 1 (hACOD1), residues 4-461 (enzyme, UniProt A6NK06 4-461, looked up)
chain: KSITESFATAIHGLKVGHLTDRVIQRSKRMILDTLGAGFLGTTTEVFHIASQYSKIYSSNISSTVWGQPDIRLPPTYAAFVNGVAIHSMDFDDTWHPATHPSGAVLPVLTALAEALPRSPKFSGLDLLLAFNVGIEVQGRLLHFAKEANDMPKRFHPPSVVGTLGSAAAASKFLGLSSTKCREALAIAVSHAGAPMANAATQTKPLHIGNAAKHGIEAAFLAMLGLQGNKQVLDLEAGFGAFYANYSPKVLPSIASYSWLLDQQDVAFKRFPAHLSTHWVADAAASVRKHLVAERALLPTDYIKRIVLRIPNVQYVNRPFPVSEHEARHSFQYVACAMLLDGGITVPSFHECQINRPQVRELLSKVELEYPPDNLPSFNILYCEISVTLKDGATFTDRSDTFYGHWRKPLSQEDLEEKFRANASKMLSWDTVESLIKIVKNLEDLEDCSVLTTLLKGP
notes: The tag actually on the construct is therefore uncertain; also called hIRG1; hACOD1 (4-461); source: E. coli BL21-CodonPlus (RIPL), purified (StrepTactin column, TEV protease, SEC)
With B1 the Km (purified protein) was 9.3 ± 2.1 mM and the “stoichiometry N” value [1] was 2.
